± gives the uncertainty stated by the source.
B1: Glucocorticoid receptor, residues 419 to 494; numbered along this chain, P04150 (parent)
chain: KLCLVCSDEASGCHYGVLTCGSCKVFFKRAVEGQHNYLCAGRNDCIIDKIRRKNCPACRYRKCLQAGMNLEARKTK

Variants of: B1
Assay: abundance fitness (aPCA) (normalised: wild type 0, dead -1); higher = more abundant; growth selection in yeast, the domain comes from the species named
Conditions: Homo sapiens

KLCLVCSDEASGCHYGVLTCGSCKVFFKRAVEIQHNYLCAGRNDCIIDKIRRKNCPACRYRKCLQAGMNLEARKTK and KLCLVCSDEASGCHYGVLTCGSCKVFFKRAVEAQHNYLCAGRNDCIIDKIRRKNCPACRYRKCLQAGMNLEARKTK are within error of each other in abundance fitness: -0.121 ± 0.095 for the first, -0.063 ± 0.037 for the second.

Compared with KLCLVCSDEASGCHYGVLTCGSCKVFFKRAVEPQHNYLCAGRNDCIIDKIRRKNCPACRYRKCLQAGMNLEARKTK, KLCLVCSDEASGCHYGVLTCGSCKVFFKRAVEVQHNYLCAGRNDCIIDKIRRKNCPACRYRKCLQAGMNLEARKTK is higher in abundance fitness: -0.265 ± 0.059 for the first, -0.044 ± 0.034 for the second.

Compared with KLCLVCSDEASGCHYGVLTCGSCKVFFKRAVETQHNYLCAGRNDCIIDKIRRKNCPACRYRKCLQAGMNLEARKTK, KLCLVCSDEASGCHYGVLTCGSCKVFFKRAVEKQHNYLCAGRNDCIIDKIRRKNCPACRYRKCLQAGMNLEARKTK is higher in abundance fitness: -0.139 ± 0.055 for the first, 0.034 ± 0.06 for the second.

KLCLVCSDEASGCHYGVLTCGSCKVFFKRAVEYQHNYLCAGRNDCIIDKIRRKNCPACRYRKCLQAGMNLEARKTK and KLCLVCSDEASGCHYGVLTCGSCKVFFKRAVEEQHNYLCAGRNDCIIDKIRRKNCPACRYRKCLQAGMNLEARKTK are within error of each other in abundance fitness: 0.035 ± 0.065 for the first, -0.039 ± 0.052 for the second.

KLCLVCSDEASGCHYGVLTCGSCKVFFKRAVENQHNYLCAGRNDCIIDKIRRKNCPACRYRKCLQAGMNLEARKTK and KLCLVCSDEASGCHYGVLTCGSCKVFFKRAVEQQHNYLCAGRNDCIIDKIRRKNCPACRYRKCLQAGMNLEARKTK are within error of each other in abundance fitness: 0.115 ± 0.1 for the first, -0.017 ± 0.048 for the second.

KLCLVCSDEASGCHYGVLTCGSCKVFFKRAVERQHNYLCAGRNDCIIDKIRRKNCPACRYRKCLQAGMNLEARKTK and KLCLVCSDEASGCHYGVLTCGSCKVFFKRAVEHQHNYLCAGRNDCIIDKIRRKNCPACRYRKCLQAGMNLEARKTK are within error of each other in abundance fitness: -0.048 ± 0.03 for the first, -0.006 ± 0.067 for the second.

KLCLVCSDEASGCHYGVLTCGSCKVFFKRAVEDQHNYLCAGRNDCIIDKIRRKNCPACRYRKCLQAGMNLEARKTK and KLCLVCSDEASGCHYGVLTCGSCKVFFKRAVESQHNYLCAGRNDCIIDKIRRKNCPACRYRKCLQAGMNLEARKTK are within error of each other in abundance fitness: 0.05 ± 0.066 for the first, -0.045 ± 0.04 for the second.

KLCLVCSDEASGCHYGVLTCGSCKVFFKRAVELQHNYLCAGRNDCIIDKIRRKNCPACRYRKCLQAGMNLEARKTK and KLCLVCSDEASGCHYGVLTCGSCKVFFKRAVEWQHNYLCAGRNDCIIDKIRRKNCPACRYRKCLQAGMNLEARKTK are within error of each other in abundance fitness: -0.093 ± 0.035 for the first, -0.135 ± 0.038 for the second.

KLCLVCSDEASGCHYGVLTCGSCKVFFKRAVEMQHNYLCAGRNDCIIDKIRRKNCPACRYRKCLQAGMNLEARKTK and KLCLVCSDEASGCHYGVLTCGSCKVFFKRAVEFQHNYLCAGRNDCIIDKIRRKNCPACRYRKCLQAGMNLEARKTK are the same in abundance fitness: -0.052 ± 0.049 for the first, -0.052 ± 0.083 for the second.

KLCLVCSDEASGCHYGVLTCGSCKVFFKRAVECQHNYLCAGRNDCIIDKIRRKNCPACRYRKCLQAGMNLEARKTK and KLCLVCSDEASGCHYGVLTCGSCKVFFKRAVEGQYNYLCAGRNDCIIDKIRRKNCPACRYRKCLQAGMNLEARKTK are within error of each other in abundance fitness: -0.176 ± 0.065 for the first, -0.08 ± 0.09 for the second.

KLCLVCSDEASGCHYGVLTCGSCKVFFKRAVEGQRNYLCAGRNDCIIDKIRRKNCPACRYRKCLQAGMNLEARKTK and KLCLVCSDEASGCHYGVLTCGSCKVFFKRAVEGQVNYLCAGRNDCIIDKIRRKNCPACRYRKCLQAGMNLEARKTK are within error of each other in abundance fitness: -0.044 ± 0.033 for the first, -0.027 ± 0.033 for the second.

KLCLVCSDEASGCHYGVLTCGSCKVFFKRAVEGQDNYLCAGRNDCIIDKIRRKNCPACRYRKCLQAGMNLEARKTK and KLCLVCSDEASGCHYGVLTCGSCKVFFKRAVEGQWNYLCAGRNDCIIDKIRRKNCPACRYRKCLQAGMNLEARKTK are within error of each other in abundance fitness: 0.005 ± 0.066 for the first, -0.074 ± 0.039 for the second.

First: KLCLVCSDEASGCHYGVLTCGSCKVFFKRAVEGQCNYLCAGRNDCIIDKIRRKNCPACRYRKCLQAGMNLEARKTK
Second: KLCLVCSDEASGCHYGVLTCGSCKVFFKRAVEGQMNYLCAGRNDCIIDKIRRKNCPACRYRKCLQAGMNLEARKTK
The abundance fitness of the first is lower: -0.128 ± 0.065 for the first, 0.018 ± 0.047 for the second.

KLCLVCSDEASGCHYGVLTCGSCKVFFKRAVEGQGNYLCAGRNDCIIDKIRRKNCPACRYRKCLQAGMNLEARKTK and KLCLVCSDEASGCHYGVLTCGSCKVFFKRAVEGQQNYLCAGRNDCIIDKIRRKNCPACRYRKCLQAGMNLEARKTK are within error of each other in abundance fitness: 0.024 ± 0.032 for the first, -0.044 ± 0.048 for the second.

KLCLVCSDEASGCHYGVLTCGSCKVFFKRAVEGQANYLCAGRNDCIIDKIRRKNCPACRYRKCLQAGMNLEARKTK and KLCLVCSDEASGCHYGVLTCGSCKVFFKRAVEGQKNYLCAGRNDCIIDKIRRKNCPACRYRKCLQAGMNLEARKTK are within error of each other in abundance fitness: 0.018 ± 0.04 for the first, -0.002 ± 0.054 for the second.

Compared with KLCLVCSDEASGCHYGVLTCGSCKVFFKRAVEGQLNYLCAGRNDCIIDKIRRKNCPACRYRKCLQAGMNLEARKTK, KLCLVCSDEASGCHYGVLTCGSCKVFFKRAVEGQNNYLCAGRNDCIIDKIRRKNCPACRYRKCLQAGMNLEARKTK is higher in abundance fitness: -0.025 ± 0.034 for the first, 0.11 ± 0.08 for the second.

KLCLVCSDEASGCHYGVLTCGSCKVFFKRAVEGQSNYLCAGRNDCIIDKIRRKNCPACRYRKCLQAGMNLEARKTK and KLCLVCSDEASGCHYGVLTCGSCKVFFKRAVEGQINYLCAGRNDCIIDKIRRKNCPACRYRKCLQAGMNLEARKTK are within error of each other in abundance fitness: -0.114 ± 0.04 for the first, -0.071 ± 0.072 for the second.

KLCLVCSDEASGCHYGVLTCGSCKVFFKRAVEGQFNYLCAGRNDCIIDKIRRKNCPACRYRKCLQAGMNLEARKTK and KLCLVCSDEASGCHYGVLTCGSCKVFFKRAVEGQPNYLCAGRNDCIIDKIRRKNCPACRYRKCLQAGMNLEARKTK are within error of each other in abundance fitness: 0.013 ± 0.078 for the first, 0.003 ± 0.046 for the second.

Reference: the Human Domainome abundance scans (Beltran et al. 2025)
